Experimental data reported in IntAct's records for PubMed 18033301.

B1: Vesicle transport through interaction with t-SNAREs homolog 1B (Mus musculus), O88384 (parent)
chain: MAASAASSEHFEKLHEIFRGLLEDLQGVPERLLGTAGTEEKKKLVRDFDENQQEANETLAEMEEELRYAPLTFRNPMMSKLRNYRKDLAKLHREVRSTPLTAAPGGRGDLKYGTYTLENEHLNRLQSQRALLLQGTESLNRATQSIERSHRIATETDQIGTEIIEELGEQRDQLERTKSRLVNTNENLSKSRKILRSMSRKVITNKLLLSVIILLELAILVGLVYYKFFRHH
partner: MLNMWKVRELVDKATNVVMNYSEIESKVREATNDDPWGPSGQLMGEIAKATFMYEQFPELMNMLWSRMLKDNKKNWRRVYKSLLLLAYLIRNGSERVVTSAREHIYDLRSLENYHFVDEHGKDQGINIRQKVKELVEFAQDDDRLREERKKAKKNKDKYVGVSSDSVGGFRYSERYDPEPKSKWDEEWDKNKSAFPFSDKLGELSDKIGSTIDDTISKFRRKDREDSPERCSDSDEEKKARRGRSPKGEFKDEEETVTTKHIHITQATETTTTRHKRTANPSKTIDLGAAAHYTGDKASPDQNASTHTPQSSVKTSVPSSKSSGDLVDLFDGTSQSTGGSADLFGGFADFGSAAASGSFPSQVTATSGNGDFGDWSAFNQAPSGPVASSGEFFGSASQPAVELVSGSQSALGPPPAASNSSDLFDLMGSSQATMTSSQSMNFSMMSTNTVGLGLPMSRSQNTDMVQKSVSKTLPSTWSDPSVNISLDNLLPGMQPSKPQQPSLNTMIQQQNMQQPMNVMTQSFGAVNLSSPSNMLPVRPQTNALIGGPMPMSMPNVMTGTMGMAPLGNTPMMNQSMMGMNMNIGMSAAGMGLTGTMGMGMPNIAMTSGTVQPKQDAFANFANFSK
B2: Clathrin interactor 1 (Homo sapiens), Q14677 (parent)
chain: B1 partner
partner: B1 chain

Variants of: B1
Conditions: with epn4_human CLINT1, Q14677

Effect of a mutation on the interaction, disrupting interaction strength:
E65W
S8W
F73S
E23R
E12A

Variants of: B2
Conditions: with vti1b_mouse Vti1b

Effect of a mutation on the interaction, disrupting interaction strength:
R146E
R96S
F52D
M53D;Y54D
